# Laboratory results as given in patent US20240368234A1.
# Target: MBP-SpyTag
# Experiment: SDS-PAGE coupling assay, biotin-HPDP-modified Catcher, without TCEP, one hour
binder,measurement,value
SpyCatcher Ala87→Cys modified with biotin-HPDP (designed binder) VTTLSGLSGEQGPSGDMTTEEDSATHIKFSKRDEDGRELAGATMELRDSSGKTISTWISDGHVKDFYLYPGKYTFVETAAPDGYEVCTPIEFTVNEDGQVTVDGEATEGDAHT,loss of activity,50%
